From publication PMC7948970

What was measured:
Test in all cases: SEC; analytical gel filtration on an XBridge BEH SEC 200 Å 3.5 μm column; molecular weight estimated from a standard curve (thyroglobulin, immunoglobin, BSA, myoglobulin)
[1] = target: Staphylococcus aureus oleate hydratase (OhyA) (Staphylococcus aureus)
[2] = target: Staphylococcus aureus oleate hydratase OhyA(Y201F) (Staphylococcus aureus)
[3] = target: Staphylococcus aureus oleate hydratase OhyA(E82A) (Staphylococcus aureus)

Substance: Staphylococcus aureus oleate hydratase (OhyA) (enzyme)
- stoichiometry N [1]: 2

Substance: Staphylococcus aureus oleate hydratase OhyA(Y201F) (enzyme)
- stoichiometry N [2]: 2

Substance: Staphylococcus aureus oleate hydratase OhyA(E82A) (enzyme)
- stoichiometry N [3]: 2
